Test results published in the supplement of paper PMC12042874.
± gives the uncertainty stated by the source.

Assay: amyloid nucleation score (Sup35N fusion, yeast selection) (log enrichment); library NNK2; higher = more nucleation; inactive = no reads after selection
Outline: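 Plasmid inserts were Illumina-sequenced at input and output from psi-negative yeast expressing Sup35N fused to peptides of 20 random codons. The yeast were induced with 100 μM copper sulfate for 24 hours and grown 7 days at 30°C on medium lacking adenine and uracil, and sequences with under 100 input reads were excluded. Nucleation score is the DiMSum log enrichment of output over input reads, centred on the mode score of non-aggregating sequences.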

| Substance | amyloid nucleation score |
| --- | --- |
| LVTLFESGFFRRLTSMDGLF | 0.115 ± 0.51 |
| LVVLD | -0.262 ± 0.79 |
| LVVLNYGVIHNMNSWPWRWG | 9.861 ± 0.047 |
| LVVVMWR | 2.82 ± 0.19 |
| LVVVPTTGRVADRQWVMRNG | 0.86 ± 0.2 |
| LWCSDCISTEIIHNQRFA | -0.152 ± 1 |
| LWIYRVAYFGFLNYKFSVFL | -1.09 ± 0.42 |
| LWLADDSATRV | 0.814 ± 0.19 |
| LWNVD | 2.94 ± 0.19 |
| LWSRVVVWQDRYVV | inactive |
| LWTHGSYSVLRLIEPVGAQE | 0.971 ± 0.51 |
| LYCRTPFCTMTLELMKMTL | 0.128 ± 0.24 |
| LYDGSVRQWTDEHWWVMSGG | 0.988 ± 0.28 |
| LYDVAQDEPLVSRMGLFDPR | 3.46 ± 0.069 |
| LYEMDSKC | -0.603 ± 1.1 |
| LYFRYWVMDSQASNFHRCRG | -0.14 ± 1 |
| LYHEDRSVISRLVSSRLKCK | 0.389 ± 0.38 |
| LYIMDLFSTAWFDMLYVKGR | -1.45 ± 0.78 |
| LYKSGA | -0.574 ± 0.28 |
| LYLTGNF | -0.199 ± 0.76 |
| LYLWWILIYDHMAPKEW | -0.47 ± 0.63 |
| LYNVVSNTVKYCIFPC | 7.135 ± 0.043 |
| LYVRRYNWSHVGFHFCGLDT | -0.384 ± 0.79 |
| LYVSFDYGAQRVHYSTAYVK | -0.013 ± 0.48 |
| LYWKSGEHIWYLGSILGCVG | 0.593 ± 0.56 |

| Substance | amyloid nucleation score |
| --- | --- |
| LYWRKTVITIEWSCSGGNLR | 0.278 ± 0.27 |
| LYYMHNE | -0.652 ± 0.64 |
| MAILVGSFDVDSNCVDSWGV | 0.027 ± 0.74 |
| MASGRWYSNSTYGDCMGGIA | -0.321 ± 1 |
| MAYWESTVIYYIDWEWDSLV | -1.16 ± 0.39 |
| MCFSPCCRWPRIRQEDQG | 0.531 ± 0.64 |
| MCLYVRLWFMSPVSLDSSAL | -0.512 ± 0.55 |
| MCMLTLRLNQLYMAIMHG | 0.603 ± 0.36 |
| MDHCTFYIRGMMPRMYGCTK | -0.711 ± 0.44 |
| MDLCINNVWWEAKTSSLGLL | inactive |
| MDVMVDW | -0.343 ± 0.63 |
| MDYNLIKCAPWT | inactive |
| MEQELMFREWLW | -0.284 ± 0.48 |
| MFARDNRFPYCDDTRSDSSF | 0.178 ± 0.45 |
| MFERW | -0.184 ± 0.56 |
| MFMANGSWTYEEVIE | 1.47 ± 0.16 |
| MFMTVRWNVAINLELFTVID | -0.34 ± 0.39 |
| MFNVLIGVGRAGVNNPGHSL | 0.343 ± 0.64 |
| MFNYINYYSYHFEFSKCFVR | 2.26 ± 0.14 |
| MFVFRCVVRTCRSDHENDHS | 4.987 ± 0.049 |
| MFYLS | -0.476 ± 0.37 |
| MGAVESGKSRSMCAVLAWSE | 1.02 ± 0.41 |
| MGCLTVVRNLEFNRVCGRGD | -0.669 ± 0.49 |
| MGENVLGRQGVLPKGEI | 0.192 ± 0.45 |
| MGEYFSMALYAPYTWVFMSV | -1.55 ± 1 |

| Substance | amyloid nucleation score |
| --- | --- |
| MGIMPQITLDLNLLYLGKVL | 0.14 ± 0.35 |
| MGLVDGMCMFDFDLVLAVVG | inactive |
| MGQTVSRPWQAGSLYGANPC | 0.926 ± 0.45 |
| MGRTHRTTTPGSRFYTSTAF | -0.57 ± 1 |
| MGRTMILRSLDQMMVITVGL | -0.598 ± 0.36 |
| MGSNAWVLNNACHGLFTSAS | 0.386 ± 0.35 |
| MHASGHWYMKRSSLGADSPV | 0.815 ± 0.18 |
| MHCYSIGFRLMRSANMLSCY | 0.394 ± 0.33 |
| MHGREFWRCTSWSSLVNLGV | 0.998 ± 0.19 |
| MHVDVV | -0.352 ± 1 |
| MIFLYCYIRIEKKVS | -0.927 ± 0.36 |
| MIHQIELNDIGWVLTTFCNE | -0.536 ± 1 |
| MIRLRIVYGTLDMYGLQMYS | 1.46 ± 0.27 |
| MIRWSRRTCRKGLTECTCST | 1.52 ± 0.33 |
| MIVFLYRLY | -0.061 ± 0.39 |
| MIVWWNYCGSAVPRKIL | -0.586 ± 1.1 |
| MKCWASPGWTQIQMEPKEGS | 0.064 ± 0.26 |
| MKFKYTNHVYRIDCRSAT | 0.551 ± 0.38 |
| MKFQPETVCYFRGYWLDRQY | -0.251 ± 0.39 |
| MKLVECNMDGCDTNTSFGWL | -0.884 ± 0.78 |
| MKYSSFINLLPTTWQHYTMN | -0.119 ± 0.65 |
| MLANTYDSEPSRHRCVGKPI | 0.754 ± 0.44 |
| MLDVVARNH | 1.52 ± 0.3 |
| MLFSRFRNICG | -0.08 ± 1 |
| MLKIHFLPLLGQWTLCRNPL | 1.28 ± 0.43 |

| Substance | amyloid nucleation score |
| --- | --- |
| MLLHMWCWIGPGKYLSVTKF | inactive |
| MLNARELGETNKMLIVWVYL | 0.441 ± 0.22 |
| MLRPAAHDGVKASYVKFKI | 0.489 ± 0.45 |
| MLSDSLLDCRVLLMVFGRET | 3.81 ± 0.051 |
| MLSTSDPVGFGRFCQNDWLN | 0.256 ± 0.55 |
| MLVLSTGHPRGFWTRVVCCD | 0.092 ± 1.1 |
| MLVMTMLWKMFSVAG | 0.432 ± 0.26 |
| MLYLCMFTERVDDNTFALYR | inactive |
| MMAIHVRMLARQSFGRICFM | 3.45 ± 0.098 |
| MMLSLANNHGSL | 0.174 ± 0.28 |
| MMRVTIPGVVLSCWPFGSTR | 3.09 ± 0.11 |
| MNIFKYFQSSSETMLTLKCT | -0.724 ± 1 |
| MNLPKFNSYLMDSANARASP | 0.58 ± 0.19 |
| MNNDSAFIEYTGHQWIWGVR | 0.269 ± 0.26 |
| MNVDGNFWAGVELTYIEGSS | -0.587 ± 0.79 |
| MPGKPWTGVVLKPRSESPAW | 0.057 ± 0.48 |
| MPIEVILCFGG | 1.84 ± 0.34 |
| MPNNVPEEN | 0.216 ± 0.62 |
| MPPHSVSVITNSHF | inactive |
| MRCNYLAEYRFQRG | -0.669 ± 0.44 |
| MRGTRACIFKRQDTSNTLNE | -1.42 ± 0.62 |
| MRHILCISSVGRFNFRCCFK | -0.038 ± 1 |
| MRHRCGHKKVSGV | 1.27 ± 0.49 |
| MRKLSKLLTWHPRHA | -0.517 ± 0.54 |
| MRKWTVSGIRGGRN | 0.879 ± 0.23 |

| Substance | amyloid nucleation score |
| --- | --- |
| MRLNYVYGCSFLDRIGT | 0.57 ± 0.33 |
| MRMYLGVDSENRASDMGRTR | 1.03 ± 0.36 |
| MRVLFIDYKTVRYCDDL | -1.03 ± 1.1 |
| MRWGY | -0.393 ± 1 |
| MRYEALMHPWSWRFR | 1.06 ± 0.12 |
| MSCTRDSLCLNFLVILFTTQ | 3.03 ± 0.065 |
| MSGFKGVITSTFIANSLLPM | -1.17 ± 0.48 |
| MSIRIGEWPVHSGAYEESLK | 0.223 ± 0.45 |
| MSLGMCFKWRHRNIVYNLSA | -0.408 ± 0.63 |
| MSLTIWGICRCKQ | -0.097 ± 0.76 |
| MSMSHSAGDRDGWIFDHRDV | 1.46 ± 0.61 |
| MSRNF | 4.87 ± 0.076 |
| MSRPSSYS | inactive |
| MTGSTSKMGRCFWQFICSGL | inactive |
| MTVDYLHRLCCMRPLYTSKN | inactive |
| MTYCCITSVPRGRIQNDAVR | inactive |
| MTYCVN | 3.87 ± 0.067 |
| MVAGITFTNASIWTYNK | 3.63 ± 0.075 |
| MVCSRYRRVCSNVNG | 0.506 ± 0.48 |
| MVHPDVNHSYGSVWKPWSDK | 0.132 ± 0.44 |
| MVLASAAKVMEVLNSKQFT | 1.42 ± 0.13 |
| MVMGTYVIVRLYKHKNCNAY | -1.36 ± 0.55 |
| MVMTYLWARGCCMKLGVQFG | 0.396 ± 0.66 |
| MVSLLNFRECMHY | inactive |
| MVVDFVVYITVCSFRFKQTF | 1.97 ± 0.18 |

| Substance | amyloid nucleation score |
| --- | --- |
| MVVRDL | -0.536 ± 1 |
| MVVSFGRLGGNLRRNLKVRI | 0.214 ± 0.65 |
| MVYRSDAGCSPVVTKK | 0.259 ± 0.5 |
| MYDCGVLFIDIRVKVGHVLE | 0.167 ± 0.56 |
| MYIRYPFATPYWSFLLGKVT | -0.117 ± 0.35 |
| MYPSG | 0.321 ± 0.49 |
| MYTAMSDSPFNVWRYGMSSY | -0.382 ± 0.29 |
| MYWFGTVHQFRKFSENHRMF | 0.721 ± 0.8 |
| MYYLNSFGRELLSGLKCYKT | -0.698 ± 0.5 |
| NAIRFLVMLVGTWF | 0.25 ± 0.24 |
| NALHEIQLDICMRSIEARGY | -1.19 ± 0.39 |
| NARCMCWSGINLVTWYLLKE | 7.145 ± 0.04 |
| NAVYACLVGEVLWSSISTLS | 0.058 ± 0.54 |
| NAYWNDGFVQAFGRGK | -0.644 ± 0.63 |
| NCDVGYLCLEKFNIPRRSVL | -0.805 ± 0.64 |
| NCIRSNDRMMFPLCVTLSCS | 0.335 ± 0.39 |
| NCNRYRMRTKFRRSYMGSVR | 0.157 ± 0.28 |
| NCPCGHVVRVNNNWRCFSVT | 6.933 ± 0.052 |
| NCSKENKPGVIETISVGMGP | 1.01 ± 0.48 |
| NCYFKLSYEDMIRQCKRLNE | 3.44 ± 0.069 |
| NDAYITSVVGFTRYMYNFMV | inactive |
| NDFWRYV | -0.591 ± 0.24 |
| NDKSFSMLATE | 0.707 ± 0.46 |
| NDSVRTVGCIQYMMRIASVF | 0.783 ± 0.57 |
| NELNLDKPSDLPLS | 0.844 ± 0.31 |

| Substance | amyloid nucleation score |
| --- | --- |
| NESSTSQNKGTRTDKGAESL | 0.376 ± 0.33 |
| NFDSYVYNVASVFYVVGLGV | 5.321 ± 0.048 |
| NFFNFSDMYRYGNKIWGGAN | 0.208 ± 1.1 |
| NFIVIALRGTDNTYSLSGLS | 6.407 ± 0.043 |
| NFKWLILAGGVC | -0.808 ± 0.41 |
| NFLWPCRIHVQGCIHISDTD | 6.171 ± 0.045 |
| NFNHVSEI | inactive |
| NFNYFGWISQEIPPLLAGLS | -0.509 ± 1.1 |
| NFQVNMFVMF | 8.986 ± 0.027 |
| NFSTGEGMYRNYNWDSQVRV | inactive |
| NFTSGGRRHNVERVGHLGLV | -0.168 ± 0.76 |
| NFTYVSIVMLLSRVWVGFNK | inactive |
| NFYAYIIVDCSWMCSTCYSL | 5.52 ± 0.044 |
| NGGLLYDI | inactive |
| NGNGCLAFAKTVFCWVDGLP | 7.215 ± 0.046 |
| NGRIICNESMSLYKSEV | 0.842 ± 0.8 |
| NGSMIKWDRFASCILHAML | inactive |
| NGTTWKYYSRMSVTCAGPSI | -0.952 ± 0.39 |
| NGTVDACLSLMPQGWHSGLE | 3.76 ± 0.12 |
